Test [1] concerns the target T1, Dido3 PHD finger (Homo sapiens, UniProt Q9BTC0).
T1 sequence (Q9BTC0 266-325): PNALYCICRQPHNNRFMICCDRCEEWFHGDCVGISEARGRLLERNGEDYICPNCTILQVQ
In kind it is binding. Conditions: wild-type Dido3 PHD, tryptophan fluorescence and NMR, peptides aa 1–12 of H3.

In test [2] the target is T1, Dido3 PHD finger. As to the kind of experiment: 1H,15N HSQC NMR titration of 15N-labeled Dido3 PHD with histone peptides. The note with it: for chemical-shift changes in 1H,15N HSQC spectra: peptides aa 1–12 of H3 (H3K4me0: aa 1–19). The class given is binding.
The next test addresses T2, Dido3 PHD H277A (UniProt Q9BTC0-4 266-325, H277A).
T2 sequence: T1 sequence (Q9BTC0 266-325) with H12A
As to the kind of experiment: other fluorescence titration + NMR titration.

In a further test the target is T3, Dido3 PHD D286A (UniProt Q9BTC0-4 266-325, D286A).
T3 sequence: T1 sequence (Q9BTC0 266-325) with D21A
As to the kind of experiment: other fluorescence titration + NMR titration.

For the next test, the target named is T4, Dido3 PHD E289A (UniProt Q9BTC0-4 266-325, E289A).
T4 sequence: T1 sequence (Q9BTC0 266-325) with E24A
As to the kind of experiment: other fluorescence titration + NMR titration.

Changes are numbered by the printed parent chain. Where no end group is shown, it is not given here.

Turning to “H3K4me1: H3K4me1 peptide (aa 1–12 of H3)”, in the test with Dido3 PHD finger [1], the “weaker binding relative to H3K4me3” value is 85 fold. In the test with Dido3 PHD finger [2] (peptide aa 1–12 of H3), the “exchange regime on the NMR timescale” value is “intermediate exchange regime”. Also, the “chemical-shift changes in 1H,15N HSQC spectra” value with Dido3 PHD finger [2] is on record as “very similar pattern of chemical-shift changes”.
As for “H3K4me2: H3K4me2 peptide (aa 1–12 of H3)”, in the test with Dido3 PHD finger [1], the “weaker binding relative to H3K4me3” value came to 6 fold. The “chemical-shift changes in 1H,15N HSQC spectra” value with Dido3 PHD finger [2] is “very similar pattern of chemical-shift changes”.

B1: H3K4me3 peptide (aa 1-12 of H3) (peptide, UniProt P68431 2-13, looked up)
peptide: ARTK(Me3)QTARKSTG
For B1, the binding result with Dido3 PHD H277A is listed as “binds”. In addition, the “fold decrease of binding against the wild type” value with Dido3 PHD D286A was around 200 fold; with Dido3 PHD E289A, around 4 fold.

Values taken from PMC3967714 (Cell reports, 2013).
